Common to all, as to test: purified protein
Series [1] has as its system T1, COc1cc(C=NN=Cc2cc(OC)c(O)c(OC)c2)cc(OC)c1O.
T1 construct: secreted by Aspergillus niger D15#26, purified
Format: biochemical, Pestalotiopsis sp. KF079. The following applies: pH 5, 30 °C.

The test system of series [2] is CCn1c(=NN=c2sc3cc(S(=O)(=O)O)ccc3n2CC)sc2cc(S(=O)(=O)O)ccc21. The following applies: pH 4, 30 °C.
The test system of series [3] is COc1cc(-c2ccc(N)c(OC)c2)ccc1N. The following applies: pH 5, 30 °C.

One may read the Km as the substrate concentration at which the rate is half of its maximum. What is called kcat is the maximal rate divided by the concentration of active sites. A word on the kcat/Km: it is the second-order rate constant that governs catalysis at low substrate concentration. Consider PsLac1 (Pestalotiopsis sp.), for which the results for the Km in series [1], in series [2] and in series [3] were 4 µM, 24 µM and 647 µM, respectively. Also, the turnover number (kcat) in series [1] was found to be 0.365 s⁻¹; in series [2] it was 0.696 s⁻¹; in series [3] it was 0.057 s⁻¹. The kcat/Km in series [1] was determined as 82900 M⁻¹ s⁻¹; in series [2] it was 29200 M⁻¹ s⁻¹; in series [3], 89 M⁻¹ s⁻¹.
For PsLac2 (Pestalotiopsis sp.), in series [1], the Km came out at 101 µM, the kcat came to 0.573 s⁻¹ and the kcat/Km was 5670 M⁻¹ s⁻¹. Besides, in series [2], the Km worked out at 100 µM, the kcat was 0.431 s⁻¹ and the kcat/Km stood at 4330 M⁻¹ s⁻¹. Also, in series [3], the Km turned out to be 144 µM, the kcat came out at 0.748 s⁻¹ and the kcat/Km was 5190 M⁻¹ s⁻¹.

The values above are taken from PMC6515530, “Characterization and Dye Decolorization Potential of Two Laccases from the Marine-Derived Fungus Pestalotiopsis sp” (International Journal of Molecular Sciences, 2019).
